target: T1, human PD-L1-Fc chimeric protein (human, UniProt Q9NZQ7 19-238); test: flow cytometry of yeast-displayed clone with soluble PD-L1-Fc (S5.1 tested at 0.5 nM only, see paragraph 221)
T1 construct: extracellular domain; Recombinant protein; also called soluble PD-L1-Fc; not shown: Fc region of human IgG1, fused at the C-terminus
Experimental: (§1) Binding was allowed to proceed for 3 hours at room temperature at which time yeast were pelleted, washed twice to remove unbound PD-L1-Fc, and stained with a fluorescently labeled secondary antibody to detect the Fc of bound PD-L1. Secondary labeling was performed for 30 minutes on ice, after which yeast were pelleted and washed as described. Yeast samples were then analyzed on a flow cytometer to quantify PD-L1-Fc binding.
(§2) FIG. 4 provides a graph of the FACS data.

T1 sequence (Q9NZQ7 19-238, change not shown): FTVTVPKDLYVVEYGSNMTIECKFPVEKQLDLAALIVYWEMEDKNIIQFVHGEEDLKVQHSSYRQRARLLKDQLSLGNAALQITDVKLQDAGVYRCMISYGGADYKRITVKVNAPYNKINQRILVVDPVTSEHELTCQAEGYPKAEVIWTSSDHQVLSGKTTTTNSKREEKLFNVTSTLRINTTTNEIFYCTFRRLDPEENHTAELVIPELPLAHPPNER

Row | binding result | Binder
1 | binds | PD-1 variant polypeptide, clone S5.1 (receptor) NPPTFSPALLVVTEGDNATFTCSFSNTSESFVLNWYRMSPSNQTDKLAAFPEDRGQLGQDSRFRVTQLPNGRDFHMSVVRARRSDSGTYLCSAIVLAPKIQIKESLRVELRVTERRAE

target: T1, human PD-L1-Fc chimeric protein; test: flow cytometry of yeast-displayed clone, FIG. 2 (0.5 nM PD-L1-Fc) and FIG. 3 (5 nM, also bound strongly)
Experimental: as §1, §2

Row | binding result | Binder
2 | binds | PD-1 variant polypeptide, clone S6.12.9 (receptor) NPPTFSPALLVVTEGDNATFTCSFSNTSESFVLNWYRMSPSNQTDKLAAFPEDRGQLGQDSRFRVTQLPNGRDFHMSVVRARRSDSGTYLCSAIVLAPRIQIKESLRVELRVTERRAE
3 | binds | PD-1 variant polypeptide, clone S5.7 (receptor) NPPTFSPALLVVTEGDNATFTCSFSNTSESFVLNWYRMSPSNQTDKLAAFPEDRGQLGQDSRFRVTQLPNGRDFHMSVVRARRSDSGTYLCSAILLAPKIQIKESLRVELRVTERRAE
4 | binds | PD-1 variant polypeptide, clone S6.12.6 (receptor, not shown: large carriers) NPPTFSPALLVVTEGDNATFTCSFSNTSESFVLNWYRISPSNQTDKLAAFPEDRGQLGQDSRFRVTQLPNGRDFHMSVVRARRSDSGTYLCSAILLAPRIQIRESLGVELRVTEKRAE
5 | binds | PD-1 variant polypeptide, clone S6.8.3 (receptor) NPPTFSPALLVVTEGDNATFTCSFSNTSESFVLNWYRMSPSNQTDKLAAFPEDRGQLGQASRFRVTQLPNGRDFHMSVVRARRSDSGTYLCSAILLAPRIQIRESLRVELRVTERRAE

target: T1, human PD-L1-Fc chimeric protein; test: yeast display, clone sequenced from the pool after five FACS sorts on PD-L1-Fc; measured as a pool, not singly
Experimental: In these sorts, yeast were incubated at room temperature in phosphate-buffered saline with 1 mg/ml BSA (PBSA) and with the following nominal concentrations of PD-L1-Fc: for sort 1, 250 nM; sort 2, 20 nM; sort 3, 1 nM; sort 4, 0.1 nM; sort 5, 0.1 nM. PD-L1 Fc refers to a human PD-L1-Fc chimeric protein. This recombinant protein contains the extracellular domain of human PD-L1 fused to the Fc region of human IgG1 at the C-terminus. After incubation with PD-L1-Fc, yeast were pelleted, washed, and resuspended in PBSA with chicken anti-cMYC for 1 hour at 4° C. After primary antibody incubation, yeast were once again washed and secondary labeling was performed on ice for 30 minutes using PBSA with goat anti-chicken Alexa Fluor 555 and goat anti-human IgG Alexa Fluor 488. Each sort was conducted such that the 1-3% of clones with the highest PD-L1 binding/cMyc expression ration were selected, thereby enriching the library for clones with the highest affinity. In the first round, 1×10⁸ cells were screened, and in subsequent rounds a minimum of ten-fold the number of clones collected in the prior sort round were screened to ensure adequate sampling of diversity.
Samples were analyzed using a FACScalibur flow cytometer and data was analyzed using FlowJo software.

Row | Binder | binding result
6 | PD-1 variant polypeptide, clone S5.1f (receptor) NPPTFSPALLVVTEGDNATFTCSFSNTSESFVLNWYRVSPSNQTDKLAAFPEDRSRPGQDSRFRVTRLPNGRDFHMSVVGARRSDSGTYLCGAISLAPKVQIKESLRAELRVTERRAE | binds
7 | PD-1 variant polypeptide, clone S5.1k (receptor) DPPTFSPALLVVTEGDNATFTCSFSNTSESFVLNWYRMSPSNQTDKLAAFPEDRSQPGQDSRFRVTQLPNGRDFHMSVVRARRDDSGTYLCGAISLAPKIQIKESLRAELRVTERRAE | binds
8 | PD-1 variant polypeptide, clone S5.1i (receptor) NPPTFSPALLVVTEGDNATFTCSFSNTSESFVLNWYRMSPSNQTDKLAAFPEDRSQPGQDSRFRVTQLPNGRDFRMSVVRARRSDSGTYLCSAISLAPKVQIKESLRAELRVTERRAE | binds
9 | PD-1 variant polypeptide, clone S5.1g (receptor) NPPTFSPALLVVTEGDNATFTCSFSNASESFVLNWYRMSPSDQTDKLAAFPEDRGQLGQDSRFRVTQLPNGRDFHMSVVRARRNDSGTYLCGAISLAPKIQIKESLRAELRVTERRAE | binds
10 | PD-1 variant polypeptide, clone S5.2s (receptor) NPPTFSPALLVVTEGDNATFTCSFSNTSESFVLNWYRMSPSSQTDKLAAFPEDRSQPGQDSRFRVTQLPNGRDFHMSVVRARRSDSGTYLCGVISLAPKVQIKESLRAELRVIERRAE | binds
11 | PD-1 variant polypeptide, clone S5.1e (receptor) NPPTFSPALLVVTEGDNATFTCSFSNTSESFVLNWYRMSPSNQTDKLAAFPEDRSQPGQDSRFRVTQLPNGRDFHMSVVRARRSDSGTYLCGAISLAPKVQIKESLRAELRVIERRAE | binds
12 | PD-1 variant polypeptide, clone S5.1n (receptor) NPPTFSPALLVVTEGDNATFTCSFSNTSESFVLNWYRMSPSNQTDKLAAFPEDRSQPGQDSRFRVTQLPNGRDFHMSVVRARGDDSGTYLCGAISLAPKVQIKESLRVELRVTERRAE | binds
13 | PD-1 variant polypeptide, clone S5.2q (receptor) SPPTLSPALLVVTEGDNVTFTCSFSNTSESFVLNWYRMSPSNQTDKLAAFPEDRGQPGRDSRFRVTQLPNGRDFHMSVVRARRNDSGTYLCGAISLAPKVQIKESLRAELRVTERRAE | binds
14 | PD-1 variant polypeptide, clone S5.1p (receptor) DPPTFSPALLVVTEGDNATFTCSFSNTSESFVLNWYRMSPSNQTDKLAAFPEDRSQPGQDSRFRVTQLPNGRDFHMSVVRARRNDSGTYLCGAILLAPRIQIRESLGAELRVTEKGAE | binds

Continued, values first:

Row | binding result | Binder
15 | binds | PD-1 variant polypeptide, clone S5.2d (receptor) NPPTFSPALLVVTEGDNATFTCSFSNTSESFVLNWYRMSPSDQTDKLAAFPEDRSRPGQDSRFRVTQLPNGRDFHMSVVGARRNDSGTYLCGAISLAPKVQIRESLRAELRVTERRAE
16 | binds | PD-1 variant polypeptide, clone S5.1c (receptor) NPPTFSPALLVVTEGDNATFTCSFSNTSESFVLNWYRMSPSNQTDKLAAFPEDRGQPGQDSRFRVIQLPNGRDFHMSVVRARRNDSGTYLCGAISLAPKVQIKESLRAELRVTERRAE
17 | binds | PD-1 variant polypeptide, clones S5.1j, S5.1o (receptor) NPPTFSPALLVVTEGDNATFTCSFSNTSESFVLNWYRMSPSNQTDKLAAFPEDRSQPGQDSRFRVTQLPNGRDFHMSVVRARRNDSGTYLCGAISLAPKVQIKESLRVELRVTERRAE
18 | binds | PD-1 variant polypeptide, clone S5.2i (receptor) NPPTFSPALLVVAEGDNATFTCSFSNTSESFVLNWYRMSPSNQTDKLAAFPEDRSQPGQDRRFRVTQLPSGRDFHMSVVRARRNDSGTYLCGAIFLAPRIQIKESLRAELRVTERRAE
19 | binds | PD-1 variant polypeptide, clone S5.1q (receptor) NPPTFSPALLVVTEGDNATFTCSFSNTSESFVLNWYRMSPSNQTDKLAAFPEDRSQLGQDSRFRVTQLPNGRDFHMSVVRARRNDSGTYLCGAISLAPKVQIRESLRVELRVTERRAE

target: T1, human PD-L1-Fc chimeric protein; test: flow cytometry of yeast-displayed clone with soluble PD-L1-Fc at 5 nM or 0.5 nM
Experimental: as §1, §2

Row | binding result | Binder
20 | binds | PD-1 variant polypeptide, clone S5.4 (receptor) NPPTFSPALLVVTEGDNATFTCSFSNTSESFVLNWYRMSPSNQTDKLAAFPEDRGQPGRDSRFRVTQLPNGRDFRMSVVRARRSDSGTYLCSAILLAPKIQIKESLGAELRVTEKGAE

From patent US20180125934A1 (Stanford University, published 2018)
